{"source": "paper PMC4437028", "about": "(2015)", "parents": {"B1": {"name": "mouse PTPδ Ig1-Fn1 (residues 28-418), splice variant meA9B+ [modified: N-linked glycans] [mouse] / mouse Slitrk2 LRR1 (first leucine-rich repeat of Slit and Trk-like family member 2), wild type [modified: N-linked glycans; N-linked … (parent complex)", "chain 1": "ETPPRFTRTPVDQTGVSGGVASFICQATGDPRPKIVWNKKGKKVSNQRFEVIEFDDGSGSVLRIQPLRTPRDEAIYECVASNNVGEISVSTRLTVLREDQIPRGFPTIDMGPQLKVVERTRTATMLCAASGNPDPEITWFKDFLPVDTSNNNGRIKQLRSESIGGTPIRGALQIEQSEESDQGKYECVATNSAGTRYSAPANLYVRELREVRRVPPRFSIPPTNHEIMPGGSVNITCVAVGSPMPYVKWMLGAEDLTPEDDMPIGRNVLELNDVRQSANYTCVAMSTLGVIEAIAQITVKALPKPPGTPVVTESTATSITLTWDSGNPEPVSYYIIQHKPKNSEEPYKEIDGIATTRYSVAGLSPYSDYEFRVVAVNNIGRGPASEPVLTQK", "chain 2": "MLSGVWFLSVLTVAGILQTESRKTAKDICKIRCLCEEKENVLNINCENKGFTTVSLLQPPQYRIYQLFLNGNLLTRLYPNEFVNYSNAVTLHLGNNGLQEIRPGAFSGLKTLKRLHLNNNKLEVLREDTFLGLESLEYLQADYNYISTIEAGAFSKLNKLKVLILNDNLLLSLPSNVFRFVLLTHLDLRGNRLKVMPFAGVLEHIGGIMEIQLEENPWNCTCDLLPLKAWLDTITVFVGEIVCETPFRLHGKDVTQLTRQDLCPRK"}}}
{"variants_of": "B1", "test": "SPR equilibrium analysis; point at 4 µM PTPδ Ig1-Fn1 (highest concentration); parent: 600; read off a plot", "units": {"response": "Response unit"}}
{"variant": "chain 2 E215A", "response": "~210"}
{"variant": "chain 2 R114A", "response": "~490"}
{"variant": "chain 2 F247A, chain 2 H250A", "response": "~460"}
{"variant": "chain 2 D167A", "response": "~100"}
{"variant": "chain 2 D187A", "response": "~120"}
